Biological target: T1, FtsQ (Escherichia coli, UniProt P06136 1-276)
T1 construct: FtsQ of Escherichia coli
Assay: not stated; unpublished results (Luirink and den Blaauwen); method not given

T1 sequence (P06136 whole entry): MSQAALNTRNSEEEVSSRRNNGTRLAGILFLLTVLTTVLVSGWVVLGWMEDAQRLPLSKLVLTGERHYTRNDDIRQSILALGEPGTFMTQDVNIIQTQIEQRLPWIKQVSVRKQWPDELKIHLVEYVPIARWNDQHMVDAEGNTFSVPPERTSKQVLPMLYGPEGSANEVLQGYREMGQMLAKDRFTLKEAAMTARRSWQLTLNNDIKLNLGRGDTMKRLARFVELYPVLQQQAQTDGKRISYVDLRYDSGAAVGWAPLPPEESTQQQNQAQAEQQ

B1: FtsB (natural protein, Escherichia coli, UniProt P0A6S5 1-103, looked up)
chain: MGKLTLLLLAILVWLQYSLWFGKNGIHDYTRVNDDVAAQQATNAKLKARNDQLFAEIDDLNGGQEALEERARNELSMTRPGETFYRLVPDASKRAQSAGQNNR
notes: FtsB of Escherichia coli
  stoichiometry N: 1

Source: publication PMC4462998, “Cell age dependent concentration of Escherichia coli divisome proteins analyzed with ImageJ and ObjectJ” (Frontiers in Microbiology, 2015)
